The values that follow come from FireProtDB.

The conditions of the data set: Bos taurus; pH 8; 30 °C; GdnHCl; CD; borate 10 mM.

Phospholipase A2 wild type, P00593, sequence (P00593 whole entry): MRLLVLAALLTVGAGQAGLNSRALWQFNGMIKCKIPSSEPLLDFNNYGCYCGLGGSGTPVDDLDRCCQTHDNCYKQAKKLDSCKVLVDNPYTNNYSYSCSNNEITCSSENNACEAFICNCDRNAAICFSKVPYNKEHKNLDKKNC

Take Phospholipase A2 wild type, P00593: the denaturant m value came out at 1.47 kcal/mol/M, the “denaturant midpoint (higher = more stable)” value is 6.9 M and the unfolding free energy was 9.5 kcal/mol.
